Laboratory results published in patent US6790824B1, “Cytokines having neurotrophic activity” (Biopharm Gesellschaft zur biotechnologischen Entwicklung …, priority 1997, dated 2004).
Entries after “also recorded” stand apart in the source; their conditions may differ.

How the values were obtained:
[1] = test system: embryonic chicken dorsal root ganglia (DRG) neurons; test: Survival of dissociated embryonic chick dorsal root ganglia (DRG) neurons, 48 h, counting of surviving neurons; type: cell-based; conditions: for survival promoting effect of the single factor: factor added alone, dose-response; for survival of DRG neurons in combination with NGF: NGF 10 ng/ml (saturating); for survival of DRG neurons in combination with NT-3: NT-3 10 ng/ml (saturating); for effect on DRG neuron survival when added together with GDF-5: factor at saturating concentration plus GDF-5 20 ng/ml; for survival effect as share of the (maximal) NGF effect: single factor
Description: Dissociated cultures of embryonic chicken dorsal root ganglia (DRG) were generated as described in details by Krieglstein and Unsicker (Neurochem. Res., 21(7) (1996) 843-850). Briefly, DRGs from white Leghorn chick embryos (day 8) were dissected in Ca^2+-Mg^2+ free Hanks' balanced salt solution. After incubation in 0.08% trypsin for 15 min ganglia were dissociated by trituration. Cells were seeded in polyomithin-laminin coated 96-well microtiter plates (A/2 Costar) at a density of 1,200 cells/well. Growth factors were applied at the time of plating in a final volume of […] Dulbecco's Modified Eagle's Medium supplemented with 0.25% bovine serum albumin, N1 additives and 100 U/ml penicillin. As a positive control, nerve growth factor (NGF) was used at the saturating concentration of 5 ng/ml. After 48 h of incubation at 37° C. in a humidified atmosphere containing 5% CO2, cultures were fixed with 2.5% glutaraldehyde. Neuronal cells were identified by their phase-bright and neurite-bearing morphologies and counted within 30% of the total surface area using phase contrast microscopy. In the first set of experiments we tested the survival promoting effect of several growth factors of the bone morphogenetic protein family.
(§1) Embryonic chick ciliary (CG), dorsal root (DRG), and sympathetic (SG) ganglia at embryonic day(s) (E) 8, 10, and 12, were dissected, freed from nerve roots and connective tissue and collected in CME. Ganglia were incubated in trypsin (ICN), washed and dissociated by trituration using fire-polished Pasteur pipettes. Cultures were set up in 96-well microtiter plates (Costar, A/2), precoated with poly-L-ornithine and laminin at a density of 1,200-1,500 cells/well in DMEM supplemented with N1 additives, 0.25% BSA, and 0.1% PSN (DME/N1) and incubated at 37° C. in a 5% CO2 incubator.
(§2) At appropriate times (CG: 24 h, DRG: 48 h, SG: 72 h) cultures were fixed by addition of 2.5% glutardialdehyde in phosphate buffered saline (PBS). Numbers of surviving neurons were determined by direct counting of 30% of the surface area using phase contrast microscopy.
Dissociated cultures of embryonic chicken dorsal root ganglia (DRGs) were generated as described in details by Krieglstein and Unsicker (Dev. Brain. Rees. 93 (1996) 10-17). Briefly, DRGs were dissected in Ca^2+-Mg^2+ free Hank's balanced salt solution (CMF). After incubation in 0.08% trypsin (BioWhittaker) for 15 min, ganglia were dissociated by gentle trituration using fire-polished Pasteur pipettes. Cells in suspension (neuron/non-neuron ratio 1:2) were seeded in polyomithin-laminin coated 96-well microtiter plates (A/2 Costar) at a density of 1,200 cells/well. Growth factors were applied at the time of plating in a final volume of 50 μl Dulbecco's Modified Eagle's Medium supplemented with 0.25% bovine serum albumin, N1 additives (Bottenstein et al., Exp. Cell Res. 125 (1980) 183-190) and 100 U/ml penicillin. As a positive control, nerve growth factor (NGF) was used at the saturating concentration of 10 ng/ml. After 48 h of incubation at 37° C. in a humidified atmosphere containing 5% CO2, cultures were fixed with 2.5% glutaraldehyde in phosphate buffered saline (PBS). Neuronal cells were identified by their phase-bright and neurite-bearing morphologies and counted within 30% of the total surface area using phase contrast microscopy. All experiments were performed in at least triplicate in two independent experiments. Data are presented as mean±SEM. Statistical comparisons were made with student's double t-test, ANOVA and MicrocalOrigin software. Differences were considered statistically significant at *P<0.05, **P<0.01, **P<0.001.

[2] = test system: chick ciliary ganglionic (CG) neurons; test: Survival of embryonic chick ciliary ganglionic (CG) neurons, 24 h, counting of surviving neurons; type: cell-based; conditions: for CG neuron survival with further addition of TGF-β: TGF-β 2.5 ng/ml, CNTF non-saturating, OSM, LIF, IL-6 at 10 ng/ml
Description: as §1, §2
Phosphatidylinositol-specific phospholipase C (PIPLC) is an enzyme that specifically cleaves glycosyl-phosphatidylinositol (GPI) linkages. Embryonic chick ciliary ganglionic neurons (E8) were isolated and seeded as described before. Neurons were incubated for 1 h at 37° C. with 1) 100 mU PIPLC or II) 100 mU PIPLC+2 ng/ml TGFβ or III) without enzyme and then growth factors were added. The number of surviving neurons was determined 24 h later.

B1: BMP-12: rh BMP-12, bone morphogenetic protein (protein, UniProt Q7Z4P5 322-450, looked up)
Growth/differentiation factor …: TALAGTRTAQGSGGGAGRGHGRRGRSRCSRKPLHVDFKELGWDDWIIAPLDYEAYHCEGLCDFPLRSHLEPTNHAIIQTLLNSMAPDAAPASCCVPARLSPISILYIDAANNVVYKQYEDMVVEACGCR
[1]; E8 chick DRG, 48 h
  survival promoting effect of the single factor: significant effect; also recorded: promoted the survival of a very small neuron population
[1]; E8, 48 h
  survival of DRG neurons in combination with NGF: significantly increased survival of DRG neurons beyond levels maintained by the single factors
  survival of DRG neurons in combination with NT-3: significantly augmented the promoting effect of NT-3

B2: BMP-11: rh BMP-11, bone morphogenetic protein (protein, UniProt O95390 299-407, looked up)
Growth/differentiation factor …: NLGLDCDEHSSESRCCRYPLTVDFEAFGWDWIIAPKRYKANYCSGQCEYMFMQKYPHTHLVQQANPRGSAGPCCTPTKMSPINMLYFNDKQQIIYGKIPGMVVDRCGCS
[1]; E8 chick DRG, 48 h
  survival promoting effect of the single factor: significant effect

B3: neurotrophin-4 (protein, UniProt P34130 81-210, looked up)
Neurotrophin-4: GVSETAPASRRGELAVCDAVSGWVTDRRTAVDLRGREVEVLGEVPAAGGSPLRQYFFETRCKADNAEEGGPGAGGGGCRGVDRRHWVSECKAKQSYVRALTADAQGRVGWRWIRIDTACVCTLLSRTGRA
[1]; E8, 48 h
  effect on DRG neuron survival when added together with GDF-5: synergistic or additive effects

B4: oncostatin M (protein, UniProt P13725 26-221, looked up)
Oncostatin-M: AAIGSCSKEYRVLLGQLQKQTDLMQDTSRLLDPYIRIQGLDVPKLREHCRERPGAFPSEETLRGLGRRGFLQTLNATLGCVLHRLADLEQRLPKAQDLERSGLNIEDLEKLQMARPNILGLRNNIYCMAQLLDNSDTAEPTKAGRGASQPPTPTPASDAFQRKLEGCRFLHGYHRFMHSVGRVFSKWGESPNRSRR
[2]
  CG neuron survival with further addition of TGF-β: did not increase the effects of these cytokines beyond background levels
[2]; at 10 ng/ml, without TGF-β
  support of CG neuron survival by the single cytokine: did not support CG neurons

B5: BMP-6: rh BMP-6, bone morphogenetic protein (protein, UniProt P22004 375-513, looked up)
Bone morphogenetic protein 6: SASSRRRQQSRNRSTQSQDVARVSSASDYNSSELKTACRKHELYVSFQDLGWQDWIIAPKGYAANYCDGECSFPLNAHMNATNHAIVQTLVHLMNPEYVPKPCCAPTKLNAISVLYFDDNSNVILKKYRNMVVRACGCH
[1]; E8 chick DRG, 48 h
  survival promoting effect of the single factor: significant effect

B6: BMP-4: rh BMP-4, bone morphogenetic protein (protein, UniProt P12644 293-408, looked up)
Bone morphogenetic protein 4: SPKHHSQRARKKNKNCRRHSLYVDFSDVGWNDWIVAPPGYQAFYCHGDCPFPLADHLNSTNHAIVQTLVNSVNSSIPKACCVPTELSAISMLYLDEYDKVVLKNYQEMVVEGCGCR
[1]; E8 chick DRG, 48 h
  survival effect as share of the (maximal) NGF effect: approximately 35%
[1]; E8, 48 h
  survival of DRG neurons in combination with NGF: significantly increased survival of DRG neurons beyond levels maintained by the single factors

B7: brain-derived neurotrophic factor (protein, UniProt P23560 19-247, looked up)
Neurotrophic factor BDNF …: APMKEANIRGQGGLAYPGVRTHGTLESVNGPKAGSRGLTSLADTFEHVIEELLDEDQKVRPNEENNKDADLYTSRVMLSSQVPLEPPLLFLLEEYKNYLDAANMSMRVRRHSDPARRGELSVCDSISEWVTAADKKTAVDMSGGTVTVLEKVPVSKGQLKQYFYETKCNPMGYTKEGCRGIDKRHWNSQCRTTQSYVRALTMDSKKRIGWRFIRIDTSCVCTLTIKRGR
[1]; E8, 48 h
  effect on DRG neuron survival when added together with GDF-5: synergistic or additive effects

B8: GDF-5: bone morphogenetic protein like molecule, member of the TGF-β superfamily (protein, UniProt P43026 382-501, looked up)
Growth/differentiation factor …: APLATRQGKRPSKNLKARCSRKALHVNFKDMGWDDWIIAPLEYEAFHCEGLCEFPLRSHLEPTNHAVIQTLMNSMDPESTPPTCCVPTRLSPISILFIDSANNVVYKQYEDMVVESCGCR
[1]; E8 chick DRG, 48 h
  neuronal numbers, GDF-5 and NT-3 both at saturating concentrations: failed to increase neuronal numbers significantly above the levels of each single factor
  survival promoting effect of the single factor: promoted the survival of a very small neuron population
  survival effect as share of the (maximal) NGF effect: about 20%
[1]; E8 chick DRG, 48 h, saturating concentration of 20 ng/ml, vs untreated
  increase in neuronal cell numbers: approximately two-fold
[1]; GDF-5 20 ng/ml plus NGF 5 ng/ml, E8, 48 h
  neuronal cell numbers, GDF-5 added to NGF: significantly increased neuronal cell numbers above values obtained for each single factor
[1]; E8, 48 h
  survival of DRG neurons in combination with NGF: significantly increased survival of DRG neurons beyond levels maintained by the single factors
  survival of DRG neurons in combination with NT-3: significantly augmented the promoting effect of NT-3
[1]; various concentrations of GDF-5 plus 2.5 ng/ml NT-3, E8, 48 h
  DRG neuron survival with addition of NT-3: significantly increased DRG neuron survival above the NT-3 level

B9: CNTF: recombinant rat (rr) CNTF, established neurotrophic factor for CG neurons (protein, UniProt P20294 1-200, looked up)
Ciliary neurotrophic factor: MAFAEQTPLTLHRRDLCSRSIWLARKIRSDLTALMESYVKHQGLNKNINLDSVDGVPVASTDRWSEMTEAERLQENLQAYRTFQGMLTKLLEDQRVHFTPTEGDFHQAIHTLMLQVSAFAYQLEELMVLLEQKIPENEADGMPATVGDGGLFEKKLWGLKVLQELSQWTVRSIHDLRVISSHQMGISALESHYGAKDKQM
[2]
  CG neuron survival with further addition of TGF-β: clearly augmented the efficacy of a non-saturating concentration of CNTF

B10: BMP-7: rh BMP-7, bone morphogenetic protein (protein, UniProt P18075 293-431, looked up)
Bone morphogenetic protein 7: STGSKQRSQNRSKTPKNQEALRMANVAENSSSDQRQACKKHELYVSFRDLGWQDWIIAPEGYAAYYCEGECAFPLNSYMNATNHAIVQTLVHFINPETVPKPCCAPTQLNAISVLYFDDSSNVILKKYRNMVVRACGCH
[1]; E8 chick DRG, 48 h
  survival effect as share of the (maximal) NGF effect: approximately 35%
[1]; E8, 48 h
  survival of DRG neurons in combination with NT-3: significantly augmented the promoting effect of NT-3
